Assay results reported in patent US20120039904A1 (Kyowa Kirin, published 2012).

T1: mouse ASCT2-myc/His, expressed on CHO cells (mouse, UniProt P51912 1-553)
T1 construct: also called mouse ASCT2/CHO
T1 sequence: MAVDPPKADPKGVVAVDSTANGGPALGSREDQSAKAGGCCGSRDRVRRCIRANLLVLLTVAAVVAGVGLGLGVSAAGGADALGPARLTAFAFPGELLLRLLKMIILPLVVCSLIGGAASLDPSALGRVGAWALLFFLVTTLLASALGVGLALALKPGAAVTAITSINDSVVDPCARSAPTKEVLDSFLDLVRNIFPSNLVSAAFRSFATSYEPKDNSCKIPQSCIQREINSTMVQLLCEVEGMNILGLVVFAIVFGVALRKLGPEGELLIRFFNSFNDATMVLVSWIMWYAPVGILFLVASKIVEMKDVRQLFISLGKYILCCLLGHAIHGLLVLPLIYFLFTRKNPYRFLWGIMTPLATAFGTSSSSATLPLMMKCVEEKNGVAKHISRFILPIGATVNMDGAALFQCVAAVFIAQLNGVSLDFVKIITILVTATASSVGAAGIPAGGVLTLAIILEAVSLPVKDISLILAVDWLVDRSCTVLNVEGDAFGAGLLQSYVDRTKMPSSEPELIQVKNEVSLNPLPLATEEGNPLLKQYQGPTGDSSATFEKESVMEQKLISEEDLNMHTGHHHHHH

T2: mouse EL2 type ASCT2-myc/His (mouse/human chimeric ASCT2), expressed on CHO cells (human/mouse chimera)
T2 construct: also called mEL2/CHO; mEL2
T2 chain: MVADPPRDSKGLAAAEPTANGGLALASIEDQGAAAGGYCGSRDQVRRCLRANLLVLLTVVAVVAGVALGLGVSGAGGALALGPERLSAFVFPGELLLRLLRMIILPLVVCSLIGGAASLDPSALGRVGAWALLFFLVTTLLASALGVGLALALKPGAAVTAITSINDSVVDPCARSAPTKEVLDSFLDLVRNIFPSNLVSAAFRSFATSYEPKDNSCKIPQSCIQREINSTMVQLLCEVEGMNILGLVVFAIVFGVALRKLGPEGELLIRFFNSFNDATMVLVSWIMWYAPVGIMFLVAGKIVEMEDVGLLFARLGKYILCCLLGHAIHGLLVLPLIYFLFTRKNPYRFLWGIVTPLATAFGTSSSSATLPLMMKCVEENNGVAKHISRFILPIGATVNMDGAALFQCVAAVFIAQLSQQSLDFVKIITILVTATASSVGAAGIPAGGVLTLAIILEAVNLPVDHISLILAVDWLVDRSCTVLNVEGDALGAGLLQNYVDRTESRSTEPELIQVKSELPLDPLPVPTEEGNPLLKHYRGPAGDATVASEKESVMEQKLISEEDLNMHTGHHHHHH

T3: human ASCT2-myc/His (fusion protein in which myc/His was added to the C-terminal of human ASCT2), expressed … (human, UniProt Q15758 1-541)
T3 construct: Amino acid transporter with C-terminal myc/His tag, stably expressed in CHO/DG44 cells; cell lysates of these cells were used for Western blotting and immunoprecipitation; also called ASCT2/CHO; human ASCT2-myc/His gene-introduced CHO cell
T3 sequence: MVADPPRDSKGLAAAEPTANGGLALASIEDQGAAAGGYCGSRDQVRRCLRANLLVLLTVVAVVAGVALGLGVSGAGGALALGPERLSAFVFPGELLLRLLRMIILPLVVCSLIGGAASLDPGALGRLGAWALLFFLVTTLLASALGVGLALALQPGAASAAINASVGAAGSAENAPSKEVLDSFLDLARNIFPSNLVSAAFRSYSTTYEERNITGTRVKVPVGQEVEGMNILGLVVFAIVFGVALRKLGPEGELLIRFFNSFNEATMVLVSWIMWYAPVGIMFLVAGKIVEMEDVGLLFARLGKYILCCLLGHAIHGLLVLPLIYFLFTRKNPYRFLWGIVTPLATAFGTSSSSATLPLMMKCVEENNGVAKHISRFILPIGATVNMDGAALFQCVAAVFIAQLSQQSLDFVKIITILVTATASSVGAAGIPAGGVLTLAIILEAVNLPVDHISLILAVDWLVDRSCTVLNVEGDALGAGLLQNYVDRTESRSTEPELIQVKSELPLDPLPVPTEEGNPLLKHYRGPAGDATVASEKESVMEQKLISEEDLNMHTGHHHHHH

T4: human ASCT2 (system ASC amino acid transporter 2), endogenous on human tumour cell lines (human, UniProt Q15758 1-541)
T4 construct: Endogenous ASCT2 of cell lines KMS-11 (stated to express ASCT2 mRNA), WiDr and OPM-2; also called SLC1A5; ASCT2 on KMS-11, OPM-2, WiDr cells
T4 sequence: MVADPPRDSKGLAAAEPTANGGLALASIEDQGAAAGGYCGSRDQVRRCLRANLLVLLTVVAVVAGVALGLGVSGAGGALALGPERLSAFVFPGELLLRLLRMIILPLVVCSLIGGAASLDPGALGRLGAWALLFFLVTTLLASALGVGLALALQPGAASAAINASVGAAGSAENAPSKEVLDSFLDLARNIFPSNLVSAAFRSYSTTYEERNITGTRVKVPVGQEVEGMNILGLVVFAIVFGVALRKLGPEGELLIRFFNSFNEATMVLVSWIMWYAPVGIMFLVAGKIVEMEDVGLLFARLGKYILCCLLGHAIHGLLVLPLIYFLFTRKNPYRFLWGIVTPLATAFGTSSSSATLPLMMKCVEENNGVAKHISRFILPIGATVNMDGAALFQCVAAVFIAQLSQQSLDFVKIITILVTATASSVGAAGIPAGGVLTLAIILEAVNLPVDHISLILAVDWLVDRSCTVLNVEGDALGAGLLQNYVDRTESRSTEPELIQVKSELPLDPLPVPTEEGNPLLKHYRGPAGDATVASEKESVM

T5: mouse EL4 type ASCT2-myc/His (mouse/human chimeric ASCT2), expressed on CHO cells (human/mouse chimera, UniProt Q15758 1-541)
T5 construct: also called mEL4/CHO; mEL4
T5 sequence: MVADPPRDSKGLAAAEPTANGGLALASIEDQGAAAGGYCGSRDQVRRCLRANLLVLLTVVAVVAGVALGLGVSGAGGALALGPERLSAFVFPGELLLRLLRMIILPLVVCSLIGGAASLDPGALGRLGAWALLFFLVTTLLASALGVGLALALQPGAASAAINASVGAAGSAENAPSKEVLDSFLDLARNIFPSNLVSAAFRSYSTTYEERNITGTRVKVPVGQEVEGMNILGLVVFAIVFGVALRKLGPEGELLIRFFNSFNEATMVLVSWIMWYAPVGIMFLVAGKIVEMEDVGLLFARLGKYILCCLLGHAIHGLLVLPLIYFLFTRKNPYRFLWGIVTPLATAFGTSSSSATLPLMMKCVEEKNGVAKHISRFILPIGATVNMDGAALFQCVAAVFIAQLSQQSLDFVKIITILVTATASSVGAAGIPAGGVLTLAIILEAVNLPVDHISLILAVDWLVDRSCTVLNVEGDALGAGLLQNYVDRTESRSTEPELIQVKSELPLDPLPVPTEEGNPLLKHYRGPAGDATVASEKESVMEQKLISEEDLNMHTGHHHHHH


Experiments:
[1] = target: T1, mouse ASCT2-myc/His, expressed on CHO …; assay: flow cytometry on mouse ASCT2/CHO cells; '-' represents the absence of reactivity
Procedure: (§1) Using the mouse ASCT2/CHO and mouse/human chimeric ASCT2/CHO cells constructed in Examples 10 and 11 and FITC-labeled anti-mouse immunoglobulin G (H+L) (manufactured by Dako) or ALEXA488-labeled anti-rat immunoglobulin G […] (manufactured by Invitrogen) as the secondary antibody, the reactivity of anti-ASCT2 monoclonal antibodies KM4008, KM4012 and KM4018 was measured in the same manner as in Example 9(1).
(§2) In Table 2, the symbols “+”, “−”, and “±” represent the presence of reactivity, the absence of reactivity, and the decrease in reactivity, respectively.

[2] = target: T2, mouse EL2 type ASCT2-myc/His …; assay: flow cytometry on mEL2/CHO cells; '-' represents the absence of reactivity
Procedure: as §1, §2

[3] = target: T3, human ASCT2-myc/His (fusion protein in …); assay: flow cytometry on human ASCT2/CHO cells; '+' = presence of reactivity
[4] = target: T4, human ASCT2 (system ASC amino acid …); assay: flow cytometry on KMS-11 cells
[5] = target: T5, mouse EL4 type ASCT2-myc/His …; assay: flow cytometry on mEL4/CHO cells; '+' = presence of reactivity
Procedure: as §1, §2

binding result [1]	binding result [2]	binding result [3]	binding result [4]	binding result [5]	Binder
no binding	no binding	binds	binds	binds	anti-ASCT2 monoclonal antibody KM4018 (antibody, rat IgG2a, V domains shown, rat IgG2a, kappa) VH: EVQLVESGGGLVQSGRSIRLSCAASGFSFSNYYMAWVRQAPSKGLEWVASITKGGGNTYYRDSVKGRFTFSRDNAKSTLYLQMDSLRSEDTATYYCARQVTIAAVSTSYFDSWGQGVMVTVSS VL: DIVLTQSPALAVSLGQRATISCKTNQKVDYYGNSYVYWYQQKPGQQPKLLIYLASNLASGIPARFSGRGSGTDFTLTIDPVEADDTATYYCQQSRNLPYTFGAGTKLELKR
–	–	binds	binds	binds	anti-ASCT2 monoclonal antibody KM4008 (antibody, V domains shown, mouse IgG3, kappa (amplified with a mouse Ig kappa primer)) VH: QIQLVQSGPELKKPGETVKISCKASGYTFTTFGMSWVKQVPGKGLKWMGWIHTYAGVPIYGDDFKGRFAFSLETSASTAYLQINNVKNEDTATYFCARRSDNYRYFFDYWGQGTTLTVSS VL: DIQMTQTTSSLSASLGDRVTISCRASQDIRNYLNWYQRKPHGTVKLLIYYTSRLHSGVPSRFSGSGSGTDYSLTISNLEQEDIATYFCQQGHTLPPTFGGGTKLEIKR
–	–	binds	binds	binds	anti-ASCT2 monoclonal antibody KM4012 (antibody, mouse IgG2b, V domains shown, mouse IgG2b, kappa) VH: QIQLVQSGPELKKPGETVKISCKASGYTFTTYGMSWVKQTPGKGLKWMGWIHTYSGVPIYGDDSKGRFAFSLETSGSIAYLQINNVKNEDTATYFCARRSDGYRYFFDYWGQGTTLTVSS VL: DIQMTQITSSLSASLGDRVTISCRASQDIRNYLNWYQQKPDGTVKLLIYYTSRLHSGVPSRFSGSGSGTDYSLTISNLEQEDIATYFCQQGNTLPPTFGGGTKLEIKR
